{
  "source": "the nanobody polyreactivity screen of Harvey et al. (2022)",
  "data": [
    {"assay": "yeast display, Sf9 membrane polyspecificity reagent, FACS + sequencing; frameworks hold sequencing errors", "procedure,_shortened": "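Sorting gates, low and high (top ~1%), were placed on anti-HA fluorescence to track expression and on streptavidin fluorescence to track reagent binding. A clone's polyreactivity label is taken from the gate it came out of. The reagent was 10% biotinylated, detergent-solubilized Sf9 membrane, applied for 1 hour at 4 °C to galactose-induced yeast display cells.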", "values": [
      {"sequence": "QVQLVESGGGLVHAGGSLRLSCAASGSIFIYYAMGWYRQPPGKERELVAAIDRSGGNTYYADSVKGRFTISRDYAKTSVYLEMNSLKPEDTAVDYCAAQVHRRVQYDYWGQRTQVTVSS", "polyreactivity (PSR sort gate)": "high polyreactivity"},
      {"sequence": "QVQLVESGGGLVQEGGSLRLSCAASGFTLHVYAMGWYRQAPGKERELVAAISTGGNTNYADSVKGRFTISRDNAKNTVYLQMNSLKPEDTAVYYCNARYTSRRSRRPYYYWGQGTQVTVSS", "polyreactivity (PSR sort gate)": "high polyreactivity"},
      {"sequence": "HEQQQDSGAGLVQAGGSLRLSCAASGNIFDSPRMGWYRQATGKEREFVATIGSGTITNYADSVKGRFTISRDNAKNTVYLQMNSLKPEDTAVYYCAAEFYLRRFKVTKRYWFDYWGQGTQVTVSS", "polyreactivity (PSR sort gate)": "low polyreactivity"},
      {"sequence": "QVQLVESGGGLVQAGGSLRLSCAAYGIIFRLKARGSNRQSPGKERELVAAITRRGGTTYYADSVKGRFTISRDNAKYTVYLQMNSLKPEDTAVFFCNTYYYWQYDWGQGTQVSVSS", "polyreactivity (PSR sort gate)": "high polyreactivity"},
      {"sequence": "QVQLVESGGGLVQAGGSLRLSCAASGRIFVPNTMGWYRQAPGKERELVAAINTGGRTYYADSVKGRFTISRDNAKNTVYLQMNSLKPEDTAVYYCAVFSLKLGYIYDYWGQGTQVTVSS", "polyreactivity (PSR sort gate)": "high polyreactivity"},
      {"sequence": "QDQLVDSGGGLVQAGGSLRLSCAASGRIIGYNAMVWYRQGPGKERELVAAITTSGGSTYYADSVKGRFTISSDNAKNTVYLQMNSLKPVDTAVYYCARDSLQVFYPYASDDYWGQGTQVTVSS", "polyreactivity (PSR sort gate)": "low polyreactivity"},
      {"sequence": "QVQLVESGGGLVQEGGSLRLSCAASGFTFVSNAMGWYRQAPGKERELVAAITYSGTRTYYADSVKGRFTISRDNAKTTVYLQMNSLKPEDTAVYYCAARRGYASAYYYWGQGTQVTVSS", "polyreactivity (PSR sort gate)": "high polyreactivity"},
      {"sequence": "QVQLVESGGGLVQAGGSLRLSCAASGFTFYRNVMGWYRQAPGKERELVAAISSRGGSTYYADSVKGRFTISRDNAKNTVYLQMNSLKPEDTAVYYCNKARYTVISYDEYDYWGQGTQVTVSS", "polyreactivity (PSR sort gate)": "high polyreactivity"},
      {"sequence": "QVQLVESGGGLVQAGGSLRLSCAASGYTLGYYAMGWYRQAPGKERELVASITERGGSTYYADSVKGRFTISRDNAKNTVYLQMNSLKPEDTAVYYCAADWDPSWWLFPTSSYDYWGQGTQVTVSS", "polyreactivity (PSR sort gate)": "low polyreactivity"},
      {"sequence": "QVQLVESGGGLVQAGGSLRLICAASGRILKYNAMGWYRQAPGKERELVAAISYRGGSTYYADSVKGRFTISRDTAKYTVYLLMNSLKPEDTAVYYCNAGGGILNGPLFDYWGQGTQVTVSS", "polyreactivity (PSR sort gate)": "low polyreactivity"},
      {"sequence": "QVQLVESGGGFVQAGGSLRLSCAASGCTVRWNAKGWYRQATGKDRELVAAITYSGGSTYYADSVKGRLTISRDIANNTVYLQMNSLNPEDTAVYYCATEGRGYFCYYTDDYWGQGTQVTVSS", "polyreactivity (PSR sort gate)": "high polyreactivity"},
      {"sequence": "QVQLVESGGGLVQAGGSLRLSCAASGSTFDLNAMGWYRQAPGKERELVARITSSTGRTFYADSVKGRFTISRDNAKNTVYLQMNSLKPEDTAVYYCNTVGHGYSPPVNRSKMDYWGQGTQVTVSS", "polyreactivity (PSR sort gate)": "low polyreactivity"},
      {"sequence": "QVQLVESGGGLVQAGGSHRLSCAASGRTFQENGMGWYRQAPGKERELVATISQRGTSTYYADSVKGRFTISRDNAKNTVYLQMNSLKPEDTAVYYCARRRVYRWYTGDYWGQGTQVTVSS", "polyreactivity (PSR sort gate)": "low polyreactivity"},
      {"sequence": "QVQLVETGGGLVQAGGSLRLSCAASGSIFTYYAMGWYRQAPGKEREFVAGISWSGGRTYYADSVKGRFTISRDNAKNTVYLQMNSLKPEDTAVYYCAAEIHDRFDSWGQGTQVTVSS", "polyreactivity (PSR sort gate)": "low polyreactivity"},
      {"sequence": "QVHLVESGGGLVQAGGSLRLRCAASGSTFGYYAMGWYRQAPGKERELVAAIRGSVTRTYYADSVKGRFTISRDNAKNTVYLEMNSLKPEDTAVYYCAAGSRLGWGSEYWGQGTQVTVSS", "polyreactivity (PSR sort gate)": "high polyreactivity"},
      {"sequence": "QVQLVESGGGLVQAGGSLRLNCAASGSTFPKYAMGWYRQAPGKERELVAAISWSGDSTYYADSVKGRFTISRDNAKNSVYLKMNRLKPEDTAFYYCAAYNFIHAGPWVYEYWGQCTQVTVSS", "polyreactivity (PSR sort gate)": "low polyreactivity"},
      {"sequence": "QVQLVESGGGLVQAGGSLRLSCAASGIIFDSYAMGWYRQAPGKERELVAAISTSGGSTYYADSVKGRFTISRDNAKNTVYLQMNSLKPEDTEVYYCAARYAVSRYRFGFNYWGQGTQVTVSS", "polyreactivity (PSR sort gate)": "high polyreactivity"},
      {"sequence": "QVQLVESGGGLVQAGGSLRLSCAASGSTFRKYAMGWYRQAPGKEREFVAAITWSTGTTYYADSVKGRFTISRDNAQNTVYLQMNSLKPEDTAVYYCSADSKPPHELYESIEHESWGQGTQVTVSA", "polyreactivity (PSR sort gate)": "low polyreactivity"},
      {"sequence": "QVQLVESGGGLVQAVGSLRLSCAASGSTFWFNAMGWYRQAPGKERELVAAIPSRGGYTYYADSVKGRFTISRDNAKNTVYLQMNSLKPEDTAVYYCAADYRYSSRKVFHFDYWGQGTQVTVSS", "polyreactivity (PSR sort gate)": "low polyreactivity"},
      {"sequence": "QVQLVESGGGLVQAGRSLRLSCAASGITFQYYAMGGYRQAPGKERELVAAISSGGSTYYADSVKGRFTISRDNAKNTVYLQMNSLKPEDTAVYYCAAKRVFFGLNYDYWGQGTQVTVSS", "polyreactivity (PSR sort gate)": "high polyreactivity"},
      {"sequence": "QVQLVESGGGLVQAGGSLRLSCAASVFIFDRYAMGWYRQAPGKERELVAAISSGGSTYYADSVKGRFTISRDNAKNTVYLQMNSLKPEDTAVYYCAAESWLNFIYEYDYWGQGTQVTVSS", "polyreactivity (PSR sort gate)": "low polyreactivity"},
      {"sequence": "QVQLVESGGGLVQAGGRLRLSCAASGSTFIDYAMGWYRPAPGKERELVAAITNGGNTKYADSVKGRFTISRDNAKNTVYLQMKSLKPEDTSVDYCSREPSIFTSSYDYWGQGTQVTVSS", "polyreactivity (PSR sort gate)": "low polyreactivity"},
      {"sequence": "QVQLVESGGGLVQAGGSLRLSCAASGSTFYRNAMGWYRQAPGKEREFVADITLGGGSTYYADSVKGRFTISRDNAKNTVYLQMNSRKPEDTAVYYCAVDYWQLNYDYWGQGTQVTVSS", "polyreactivity (PSR sort gate)": "low polyreactivity"},
      {"sequence": "QVQLVESGGGLVQAGGSLRLSCAASGRTFTYYTMGWYRQAPGKERELVAAITWSGGRTYYADSVKGRFTISRDNAKYTVYLQMNSLKPEDTAVYYCAKPPQGTYDYWGQGTQVTVSS", "polyreactivity (PSR sort gate)": "low polyreactivity"},
      {"sequence": "QVQLVESGGGLVQAGGSLRLSCAASGSIFVRYAMGGYRQAPGKERELVASIRSRGDSTYYADSVKGRFTISRDNAKNTVYLQMISLKPEDTAVYFFADRRYPPRMDYWGQGTQVTVSS", "polyreactivity (PSR sort gate)": "high polyreactivity"},
      {"sequence": "QVQLVESGGGLVQAGGSLRLSCAASGSIFRPNTMGWYRQATGKERELVADIRYRGGGTYYADSVKGRFTITRDNATNTVYLQMNSLKPEDTAVYYCAKASAQWVQFDFWGQGNQVTVSS", "polyreactivity (PSR sort gate)": "high polyreactivity"},
      {"sequence": "QVQLVESGGGLVQAGGSLRLSCAASGRTFGSNAMGWYRQAPGKERELVANIDGGGGTYADSVKGRFTISRDNAKNTVYLQMNSLKPEDTAVYYCATRWSGYDMDYWGQGTQVTVSS", "polyreactivity (PSR sort gate)": "low polyreactivity"},
      {"sequence": "QVQLVESGGGLVQAGGSLLLSCAASGSIFGYYAMGWYRQAPGKERELVAAITRRGGSTYYADSVKGRFTISRDNAKNTVYLQMNSLKPEDTAVYYCNKVTRTEYDYWGQGTQVTVSS", "polyreactivity (PSR sort gate)": "high polyreactivity"},
      {"sequence": "QVQLVESGGGLVQAGGSLRLSCADSGRIFQPNVMGWYRQAPGKERELVAAIRSGSSTYYADSVKGRFTISRDNAKNTVYLQMNSLKPEDTAVYYCATRRAGRGYDYWGQGTQVTVSS", "polyreactivity (PSR sort gate)": "high polyreactivity"},
      {"sequence": "QVQLVESGGGLVQAGGSLRLSCAASGRTSGFNTMGWYRQAPGKERELVAAISFSGGSTYYADSVKGRFTISRDNAKNTVYLQMNSLKPEDTAVYYCNALYRYLYRSGDYWGLGTQVTVSS", "polyreactivity (PSR sort gate)": "low polyreactivity"},
      {"sequence": "QVQLVESGGGLVQAGGSLRLSCAASGSTFDRYGMGWYRQAPGKERELVARITSSGASTYYADSVKGRFTISRDNAMNTVYLQMNSQKPEDTAVYYCAADEGYPGDGDYWGQGTQVTVSS", "polyreactivity (PSR sort gate)": "low polyreactivity"},
      {"sequence": "QVQLVESGGGLVQAGGSLSLSCGASGRIFSLYAMGWYRQAPGKERELVAAMSWGAGSTYYADSVKGRFTISRDNAKNTVYLQMNSLKREATAVYYCATGRRYYYPYASYLKYGYWGQGTQVTVSS", "polyreactivity (PSR sort gate)": "high polyreactivity"}
    ]}
  ]
}
